Test results reported in publication PMC5588702 (Structure (London, England : 1993), 2014).

Molecular target: DNA polymerase β polymerase domain with the V303M mutation (UniProt P06766 88-335, V303M, [methyl-13C]methionine labelled)
Experiment: NMR

B1: oxidized form of the XRCC1 N-terminal domain, XRCC1(1-155), containing the C12-C20 disulfide bond (domain or fragment, human, UniProt P18887 2-155, looked up)
chain: PEIRLRHVVSCSSQDSTHCAENLLKADTYRKWRAAKAGEKTISVVLQLEKEEQIHSVDIGNDGSAFVEVLVGSSAGGAGEQDYEVLLVTSSFMSPSESRSGSNPNRVRMFGPDKLVRAAAEKRWDRVKIVCSQPYSKDSPFGLSFVRFHSPPDK
modifications: Cys12-Cys20 disulfide bond; N-terminal carbimate (CO2) adduct on Pro2; U-[15N] labelled
For B1, the “ratio KD(pol β•X1NTDred)/KD(pol β•X1NTDox)” value was 25.2.
